Measurements published in paper PMC7417555, “Comparative structural analyses and nucleotide-binding characterization of the four KH domains of FUBP1”.

Assays:
FUBP1 KH2 [1] = target: T1, FUBP1 KH2 (UniProt Q96AE4 185-251); assay: EMSA; ITC: 25 mM HEPES pH 7.5, 50 mM NaCl (150 mM for tandem and KH1-4), 0.5 mM TCEP, 20 C; native PAGE: 200 uM protein, 5x ssDNA, 25 mM HEPES pH 7.5, 50 mM NaCl, 0.5 mM TCEP, 4 C, 0.5x TBE (KH4 0.5x TAE); conditions: protein: recombinant; tags: His6 removed by TEV
FUBP1 KH4 [2] = target: T2, FUBP1 KH4 (UniProt Q96AE4 376-443); assay: as above; conditions: protein: recombinant; tags: N-terminal His6 kept in native PAGE; removed by TEV in general protocol
T2 sequence (Q96AE4 376-443): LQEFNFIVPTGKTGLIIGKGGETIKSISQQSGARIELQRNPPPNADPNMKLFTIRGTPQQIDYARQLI

FUBP1 KH1-4 = FUBP1 KH1-4 (UniProt Q96AE4 100-443); assay: ITC; 150 mM NaCl; ITC: 25 mM HEPES pH 7.5, 50 mM NaCl (150 mM for tandem and KH1-4), 0.5 mM TCEP, 20 C; native PAGE: 200 uM protein, 5x ssDNA, 25 mM HEPES pH 7.5, 50 mM NaCl, 0.5 mM TCEP, 4 C, 0.5x TBE (KH4 0.5x TAE); conditions: protein: recombinant; tags: His6 removed by TEV
Chain of FUBP1 KH1-4 (Q96AE4 100-443): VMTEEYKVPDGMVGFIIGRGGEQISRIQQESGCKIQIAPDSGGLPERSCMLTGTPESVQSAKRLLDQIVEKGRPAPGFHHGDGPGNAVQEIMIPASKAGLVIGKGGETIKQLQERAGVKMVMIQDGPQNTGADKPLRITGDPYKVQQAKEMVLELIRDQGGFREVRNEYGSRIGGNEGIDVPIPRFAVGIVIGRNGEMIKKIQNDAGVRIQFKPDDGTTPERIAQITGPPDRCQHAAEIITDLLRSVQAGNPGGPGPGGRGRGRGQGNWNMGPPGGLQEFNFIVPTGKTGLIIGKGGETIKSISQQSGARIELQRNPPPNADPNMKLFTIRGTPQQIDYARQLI

FUBP1 KH1-2 = FUBP1 KH1-2 (UniProt Q96AE4 100-251); assay: ITC; 150 mM NaCl; range given for the three tandems; ITC: 25 mM HEPES pH 7.5, 50 mM NaCl (150 mM for tandem and KH1-4), 0.5 mM TCEP, 20 C; native PAGE: 200 uM protein, 5x ssDNA, 25 mM HEPES pH 7.5, 50 mM NaCl, 0.5 mM TCEP, 4 C, 0.5x TBE (KH4 0.5x TAE); conditions: protein: recombinant; tags: His6 removed by TEV
Chain of FUBP1 KH1-2 (Q96AE4 100-251): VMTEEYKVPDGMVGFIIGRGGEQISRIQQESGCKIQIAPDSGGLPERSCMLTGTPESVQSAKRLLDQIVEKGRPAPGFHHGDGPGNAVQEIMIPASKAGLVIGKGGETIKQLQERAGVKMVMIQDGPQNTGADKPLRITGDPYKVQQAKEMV

FUBP1 KH2-3 = FUBP1 KH2-3 (UniProt Q96AE4 185-339); assay: as above; conditions: protein: recombinant; tags: His6 removed by TEV
Chain of FUBP1 KH2-3 (Q96AE4 185-339): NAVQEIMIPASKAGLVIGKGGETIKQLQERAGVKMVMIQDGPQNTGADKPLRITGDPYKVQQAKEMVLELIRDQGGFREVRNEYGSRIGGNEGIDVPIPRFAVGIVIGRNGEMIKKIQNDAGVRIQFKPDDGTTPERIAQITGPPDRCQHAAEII

FUBP1 KH3-4 = FUBP1 KH3-4 (UniProt Q96AE4 275-443); assay: as above; conditions: protein: recombinant; tags: His6 removed by TEV
Chain of FUBP1 KH3-4 (Q96AE4 275-443): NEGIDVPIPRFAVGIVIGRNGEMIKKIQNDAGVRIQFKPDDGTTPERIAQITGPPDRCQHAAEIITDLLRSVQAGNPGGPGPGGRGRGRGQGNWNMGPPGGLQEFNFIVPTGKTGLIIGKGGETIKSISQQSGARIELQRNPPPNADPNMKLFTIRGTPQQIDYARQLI

FUBP1 KH3 [3] = target: T3, FUBP1 KH3 (UniProt Q96AE4 275-339); assay: EMSA; ITC: 25 mM HEPES pH 7.5, 50 mM NaCl (150 mM for tandem and KH1-4), 0.5 mM TCEP, 20 C; native PAGE: 200 uM protein, 5x ssDNA, 25 mM HEPES pH 7.5, 50 mM NaCl, 0.5 mM TCEP, 4 C, 0.5x TBE (KH4 0.5x TAE); conditions: protein: recombinant; tags: His6 removed by TEV
T3 sequence (Q96AE4 275-339): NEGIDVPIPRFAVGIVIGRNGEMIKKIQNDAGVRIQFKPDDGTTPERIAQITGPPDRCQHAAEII

FUBP1 KH1 [4] = target: T4, FUBP1 KH1 (UniProt Q96AE4 100-164); assay: as above; conditions: protein: recombinant; tags: His6 removed by TEV
T4 sequence (Q96AE4 100-164): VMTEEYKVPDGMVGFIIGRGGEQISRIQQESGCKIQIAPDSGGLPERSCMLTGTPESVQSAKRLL

FUBP1 KH3 [5] = target: T3, FUBP1 KH3; assay: ITC; 50 mM NaCl; ITC: 25 mM HEPES pH 7.5, 50 mM NaCl (150 mM for tandem and KH1-4), 0.5 mM TCEP, 20 C; native PAGE: 200 uM protein, 5x ssDNA, 25 mM HEPES pH 7.5, 50 mM NaCl, 0.5 mM TCEP, 4 C, 0.5x TBE (KH4 0.5x TAE); conditions: protein: recombinant; tags: His6 removed by TEV
FUBP1 KH2 [6] = target: T1, FUBP1 KH2; assay: ITC; 50 mM NaCl; Kd only in Fig 3C; ITC: 25 mM HEPES pH 7.5, 50 mM NaCl (150 mM for tandem and KH1-4), 0.5 mM TCEP, 20 C; native PAGE: 200 uM protein, 5x ssDNA, 25 mM HEPES pH 7.5, 50 mM NaCl, 0.5 mM TCEP, 4 C, 0.5x TBE (KH4 0.5x TAE); conditions: protein: recombinant; tags: His6 removed by TEV
FUBP1 KH4 [7] = target: T2, FUBP1 KH4; assay: as above; conditions: protein: recombinant; tags: N-terminal His6 kept in native PAGE; removed by TEV in general protocol
FUBP1 KH1 [8] = target: T4, FUBP1 KH1; assay: as above; conditions: protein: recombinant; tags: His6 removed by TEV
FUBP1 KH2 [9] = target: T1, FUBP1 KH2; assay: ITC; 50 mM NaCl; preferred over fragment 8; ITC: 25 mM HEPES pH 7.5, 50 mM NaCl (150 mM for tandem and KH1-4), 0.5 mM TCEP, 20 C; native PAGE: 200 uM protein, 5x ssDNA, 25 mM HEPES pH 7.5, 50 mM NaCl, 0.5 mM TCEP, 4 C, 0.5x TBE (KH4 0.5x TAE); conditions: protein: recombinant; tags: His6 removed by TEV
FUBP1 KH4 [10] = target: T2, FUBP1 KH4; assay: ITC; 50 mM NaCl; no preference between fragments 7 and 8; ITC: 25 mM HEPES pH 7.5, 50 mM NaCl (150 mM for tandem and KH1-4), 0.5 mM TCEP, 20 C; native PAGE: 200 uM protein, 5x ssDNA, 25 mM HEPES pH 7.5, 50 mM NaCl, 0.5 mM TCEP, 4 C, 0.5x TBE (KH4 0.5x TAE); conditions: protein: recombinant; tags: N-terminal His6 kept in native PAGE; removed by TEV in general protocol

T1 sequence (Q96AE4 185-251): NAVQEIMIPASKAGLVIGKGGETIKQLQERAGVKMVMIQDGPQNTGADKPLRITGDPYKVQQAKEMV

Binder: CCCTCGGGAA (ssDNA) [FUSE fragment 4, 10-mer]
- binding result (FUBP1 KH2 [1]): no binding
- binding result (FUBP1 KH4 [2]): no binding

Binder: ATGTATATTCCCTCGGGATTTTTTATTTTGTGTTATTCCACGGCATG (ssDNA) [47-mer c-Myc FUSE]
- Kd (FUBP1 KH1-4): ~85 nM
- Kd (FUBP1 KH1-2): ~5.29 µM
- Kd (FUBP1 KH2-3): ~5.29 µM
- Kd (FUBP1 KH3-4): ~5.29 µM

Binder: TTTGTGTTAA (ssDNA) [FUSE fragment 8, 10-mer (native PAGE)]
- binding result (FUBP1 KH3 [3]): binds
- binding result (FUBP1 KH1 [4]): binds

Binder: TTGTGTTA (ssDNA) [FUSE fragment 8, 8-mer (ITC)]
- Kd (FUBP1 KH3 [5]): 17 µM
- binding signal (FUBP1 KH2 [6]): > 5 fold weaker than KH3 (at least)
- binding signal (FUBP1 KH4 [7]): > 5 fold weaker than KH3 (at least)
- binding signal (FUBP1 KH1 [8]): > 5 fold weaker than KH3 (at least)

Binder: TATTTTGT (ssDNA) [FUSE fragment 7, 8-mer (ITC)]
- binding result (FUBP1 KH2 [9]): binds
- binding result (FUBP1 KH4 [10]): binds

Binder: TTCCACGGAA (ssDNA) [FUSE fragment 10, 10-mer]
- binding result (FUBP1 KH2 [1]): no binding
- binding result (FUBP1 KH4 [2]): no binding
